experiment: soluble on expression in E. coli; label from the status in PepcDB or PDB records

Sequence | soluble on expression in E. coli
MDLELEPTLESIVQHDSLKWIFVGGKGGVGKTTTSSSVAVQLALAQPNEQFLLISTDPAHNLSDAFCQKFGKDARKVEGLPNLSCMEIDPEAAMSDLQQQASQYNNDPNDPLKSMMSDMTGSIPGIDEALSFMEVLKHIKNQKVLEGEDNSNAISYKTIIFDTAPTGHTLRFLQLPSTLEKLLSKFKDLSGKLGPMLSMMGGGQQQDIFEKLNEVQKNVSEVNEQFTNPELTTFICVCISEFLSLYETERMIQELMSYNMDVNSIVVNQLLFAEGDDHSCKRCESRWKMQKKYLDQMGELYEDYHLVKMPLLGCEIRGVENLKKFSKFLLKPYDPKADSDIVFDLEEK | soluble
MDLFIKKRIKAIQKGDQNAYADLVDLYKDKIYRLCYRMLGNRHEAEDAAQEAFIRAYIHIDTYNPEMKFSTWLYRIATNLTIDKLRKRKPDVYLDEEVGGTDGLTMQAQLPSREASPEEAVESLELQETVQRAIEQLPEKYRSVIVLKYMEDLSLQEISEILGLPVGTVKTRLHRGREALRRQLGHL | not soluble
MDLIHEKVFVNRYHYDVRNHEWEKENGVPKTNVEVTFQLHHKDKEANNTSVVAVLQFMIVRDEFVISGIVSQMNHIQNRIVNNPKDFSQEEAEYLAAPLLDTLQRLTYEVTEIALDRPGINLEF | not soluble
MDLLGKLFSRALKLSTLPTKKKRDAFSQQRKVLKKLLKKSANTQFGLRFNFYEILVQFSSGNKKVFYDFYKRRVPVYTYNTLYNEWWYRLKEGEADVTWPGKVQYFALSSGTSDASTKYIPITEQFLKANKKIGIRQLLSLAHYKLPKDLLGKGILMLGGSTHLHKTETYYEGDLSGIQASKIPFWFQYFYKPGSRIARNRDWESKLNDIVESAPDWDIGFIVGVPAWLQILLERIIARYQLKTIHDIWPNLTVFVHGGVAFDPYRKGFEKLLAKPIIYIETYLASEGFIAYQAGPGRKGMKLILDNGIFFEFVPFNEQNINASGDIVVNPKTLMIHEVEEGVDYVLLVSTCAGTWRYMIGDVIRFVDKAQAEIIITGRTKHFISLCGEHLSVDNMNQAIKLVAEELNIIIKEFTVSGIAHDTLFAHQWYIGTDHVIDPVVVSDLLDEKLKLLNDDYRVERTSALKEIFVTILPSQSFYDWMRYRGKEGGQNKFPRVLNKKLHEDWKAFLNQ | not soluble
MDLNFDLYMNDVVEQARNEIEHAGYQQLTSAEDVDQVLQQKGTSLVMVNSVCGCAGGIARPAAAHALHYDKLPQRLVTVFAGQDKEATQQAREYFEGYAPSSPSFALIKDGKITEMIERHQIEGHDVMDVINQLQALFDKYCEER | not soluble
MDLQSTPLKGVVRSSEDGLFYLFPIQSLSTLQEMKGHLTCAIDVLSNPDESDVEKRLDAVRTLNSLVAALSVNDGDHYDVIDTAFEEIRE | not soluble
MDLSGVKKKSLLGVKENNKKSSTRAPSPTKRKDRSDEKSKDRSKDKGATKESSEKDRGRDKTRKRRSASSGSSSTRSRSSSTSSSGSSTSTGSSSGSSSSSASSRSGSSSTSRSSSSSSSSGSPSPSRRRHDNRRRSRSKSKPPKRDEKERKRRSPSPKPTKVHIGRLTRNVTKDHIMEIFSTYGKIKMIDMPVERMHPHLSKGYAYVEFENPDEAEKALKHMDGGQIDGQEITATAVLAPWPRPPPRRFSPPRRMLPPPPMWRRSPPRMRRRSRSPRRRSPVRRRSRSPGRRRHRSRSSSNSSR | soluble
MDMRSHEMIERRREDNGNNNGGVVISNIISTNIDDNCNGNNNNTRVSCNSQTLDHHQSKSPSSFSISAAAKPTVRYRECLKNHAASVGGSVHDGCGEFMPSGEEGTIEALRCAACDCHRNFHRKEMDGVGSSDLISHHRHHHYHHNQYGGGGGRRPPPPNMMLNPLMLPPPPNYQPIHHHKYGMSPPGGGGMVTPMSVAYGGGGGGAESSSEDLNLYGQSSGEGAGAAAGQMAFSMSSSKKRFRTKFTTDQKERMMDFAEKLGWRMNKQDEEELKRFCGEIGVKRQVFKVWMHNNKNNAKKPPTPTTTL | not soluble
MDMSKASQEQFSMFMNLLCITVKDMPITEYYTSYILWEEVEFLEGVKDLLDPTSAFEDRRSSLYHHLGHNFASNCSLKDDNNVRDAHVVVEDHTKFDNYMYDQMTRKEWTSLHL | soluble
MDMTDQAFFKYVRNFNEYQKRSMFGGIGLFSDDAMFALVSNDCCYLRGGNGLDEEFTLLNCEKYKHVKKQTTATVNYYDVTDLFESGFTGLDDLLRKSIDCSIKERKYQKSSASKRLRDLPNMQLTLERMVKKAGIDDVETFLELGPVEVFNKVRVAYGNDVDVKLLWKFAGAIDGVHWKLIQEPRKKQLLALCE | not soluble
MDNGDWGYMMTDPVTLNVGGHLYTTSLTTLTRYPDSMLGAMFGGDFPTARDPQGNYFIDRDGPLFRYVLNFLRTSELTLPLDFKEFDLLRKEADFYQIEPLIQCLNDPKPLYPMDTFEEVVELSSTRKLSKYSNPVAVIITQLTITTKVHSLLEGISNYFTKWNKHMMDTRDCQVSFTFGPCDYHQEVSLRVHLMEYITKQGFTIRNTRVHHMSERANENTVEHNWTFCRLARKTDD | not soluble
MDNHNKYSVRCQCGAVEVQLNNNPVVHAFCHCSDCRDLLNIPFHAVTAWNKNDAVIVKGEEELSIYKHPSLEMTRCFCKHCGETVFNTNVMDWRVISQLLISKCNNNEIPENLRSDKHFFYEQRVVDIQDELPKFSRGTDGPLYEDQH | not soluble
MDPFGTYKTAISARATDKAILKKSQDGGIISASYIYGLENGLLDGVIVANTEDGFKAAPKIATTPEEVLSAAGTKYTVSPNVSVLKDAVREYALEKVGIVGTPCQVRAIRKLMKYPMGFRHTDSKIALVMGIFCMENFPYEGMKAIVEQYAGIRMNDVLKTDIGKGKFWVYSKSGDVKAVPLKDTHMYEQKSCHVCMDYTAELADISTGSVGSPDGWSTIFVRTAKGEEYLNKMVEAGALETKPIDDVKPGLDLVQKLALQKKEKNDKEIAHRKEIGLPVPYLEHHHHHH | not soluble
MDPSLLRERELFKKRALSTPVVEKRSASSESSSSSSKKKKTKVEHGGSSGSKQNSDHSNGSFNLKALSGSSGYKFGVLAKIVNYMKTRHQRGDTHPLTLDEILDETQHLDIGLKQKQWLMTEALVNNPKIEVIDGKYAFKPKYNVRDKKALLRLLDQHDQRGLGGILLEDIEEALPNSQKAVKALGDQILFVNRPDKKKILFFNDKSCQFSVDEEFQKLWRSVTVDSMDEEKIEEYLKRQGISSMQESGPKKVAPIQRRKKPASQKKRRFKTHNEHLAGVLKDYSDITSSK | not soluble
MDPTETFARMNKVMHQTLKYVKEVESINFSSRGVIDFNGEVMEDHQRIFLSVCTSVFANFSFSCQMDVEKLLSFLMALFENYSKENAYHNALHAADSVQMLFLILREKPATLIFTENEVILAFLATLSLGFVHPGVSNAFLARIDHPLVLVYGDMTTQQSAGLTALLYLLNREENRFIDLFANSGTQPFSQFLREILVETVLGTAPRLRSSLLRDLEKVAVADAVELNDIPILLAAVVILADNALALRPHAQFVNLAGLMVTEWLREAYEEEQRGMDPLVPNLRKQIYENGLGMAVDYCKVWLRPLITNIRALVPQDLYDNMEGNTEAPSMSEIQDFLVHLDSSNERWNDGSVPVIDIIRRITMHATSLDRKASKRAILNAASN | not soluble
MDPVEAGDWIAGRPLQLVFLSGLNPVNKPAHNSIVNVFRNRTADKPPLHIRVVSGELDIPPKRETGSGKGILRREWPQKYLDKVPALIVVFIDLEWDHPSWEEKKTEAESKVASIRGSLRHGTKIALVLIQQKSTSISDNLAADRAHELCQACSLSSKQLFILPADNLLAPNTTNLQNFALKLELAFHELCQAFYQQRLKTIRSRNIPNNSPALVVRQQFKLAFLSELRQDTHTALRNYRLAYDQCRDTVEQWDGVDVFEWRSVVGLLNYKVQQGLLKTKNSVISTRGMCELCFLHSTALEAINQMRRHTTVFFSSSPGIYPTPHLASIELLLWKSKQCYQFAHLFERSVAGGLSALATLNPGTHLDQAASIYSAANTEIAALKRNAPQNVPYPSPDPLANSSSTVFFGQRPWRINHEGLATAEVEAAAVTAIIQRLVVNHEGVISLLSAALAQYQKYGCLRMKKKVMMEMANTCYANNEIQRALRFWGLVVKDNALPYSIRKDMMHRATWAAYAITSIQDYAVCCMQLMCPAYSEVLPSDCVKGLLDVLDGKPPGSPFPNDDISQEQLHTYQLQWQHVLQEHPAFVVQASKIAELFLETRVSFLDQQTVEQDSKVAVRVEIVSKIEQVIRLNDVSVHLKAKKFPPDANQTANDADCLIYDPIHLGSVEVSKSKPLQRVVLLDLKNAKQNWIVTVTKVTLDLGNAIRGNIEFDENALNRNCHVENIIGLEFLKIGVAKTSVKLESVEKVDCLIGEVTSTELTIRNTCKSSPIHGLQLDFKRKEQKHAEAAAVLFVEQDGTELKSEFSKSVCEQLGAGEMAKIPVMFSAQLVGDYVLQLELSYKISEDGILVTKSTMLEVGVTAKEPFTVTSTVMNMNGIPMTSILNNCDHILNASIQSAASIVISSVEFLMADVVTLCDTINGGSGKNLNDKVHSEEVICYSAVIRVLVKEDESETPLGRMSVEWRRAVPNSCPVRSVAPLCRIPVLACPISISSHIKTNPAIVRQPIEICFELKSHSKEAVEISTNFDLNDVFMFSGERKVTMTVLPGATRRVTVVVMALSAGRLNFPKISLKSPQISDQTLQQSLRTLPAAIFVLPKAKDLAPHP | not soluble
MDPVRILRHLITGQSAIKRAFPPATLTVIEQAIAHSETLHGGEIVFAVEASLDLPLLLQNQIIRERAIDVFSLLRVWDTEHNNGVLIYLLMADHDVEIVADRGIHTKVDQTIWETACDTMKTTFRHGQFEQGVLAGIDLSTRVLQQFFPASTGKRKSELPDRPVVLLEHHHHHH | not soluble
MDQAELSIEQVLKRDIPWETYMNTKLVSAKGLQLLRRYDKKPESARAQLLDEDGPAYVHLFVSILRDIFKEETVEYVLALIYEMLSANPTRARLFHDESLANEDTYEPFLRLLWKGNWFIQEKSCKILAWIISARPKAGNAVIGNGIDDVLKGLVEWLCAQLKQPSHPTRGVPIAISCLSSLLKEPVVRSSFVQADGVKLLVPLISPASTQQSIQLLYETCLCIWLLSYYEPAIEYLATSRTMQRLTEVVKHSTKEKVVRVVILTFRNLLPKGTFGAQMVDLGLPHIIHSLKTQAWSDEDLLDALNQLEEGLKDKIKKLSSFDKYKQEVLLGHLDWNPMHKETNFWRENVTCFEENDFQILRVLLTILDTSSDPRSLAVACFDISQFIQYHAAGRVIVADLKAKERVMKLINHENAEVTKNAILCIQRLLLGAKYASFLQA | soluble
MDQVVVFQKMFEQVRKEQNFSWFYSELKHHRIAHYIYYLATDNIRIITHDDTVLLLRGTRNLLKVSTTKNPAKIKEAALLHICGKSTFREYCSTLAGAGVFRWVTDVNHNKRSYYAIDNTLLYIEDVENNKPLI | not soluble
MDRAPVSSRRPCASQDPQRRPLCREEEGATPTALAVSSTTLGGRGGAHMCSCTVSSPNREGTCSSNILSYTLTHSTSPVVPWGCGRQPNHLQAPPRLAPLTESPIVARGFGPPPIAPAPLALAESSEHALCAPQLTFTAGAPGGTCLCSARSALPLLPFSSVLTASQRATPVPVWRRSKPLTRLPATTLGPTLSGNSGSPDDVVVALSDASMPKGETGEWMCAEASLQPSAAEPTPNAGSAVRHVDYQAAATQTGCVGSSLAAKVATESSQMALPDALAHLVEPPQGASAPSKTATDQLVNAPVGDIELRKRREEDSSDARASLSSALSSLGHPSNHNVHSSVDGVLWAHEAPEQPAYAHQHQLPAIFSQLVQDLLAAEPRADVEGDDDLLERWIQSWFENRCMTQPLQQSRSNSMKHLRTLQEAAVGAIANGAYVQGARSSNYVEPREKPAVDKNVGDATHAGPAARPAAGPSTTISASAAVTRTTTKSASAQLFPSSTAASPPHQYVPLTVEYSCSTLQSRMTSGASQRATSPPKPPQAQPLPVSPGTLHTAGASSTPGPPPHSAADGGGGVLAAVVGLSSPPQQPQQQPQPAKPLSGGPHLPAPASTRSMSSKQTVVAAAALAGGGEGDKGASGARPKLATTACAVFAHSSSSSAPKEAAHPHE | soluble
